Laboratory results from the Immune Epitope Database (IEDB).
Values belong to the sequence of their own block, whether it stands above or below them.

How the values were obtained:
HLA-A*24:02 = assay: IEDB peptide-MHC binding, purified MHC/competitive/radioactivity; filed as Kd, often an IC50 or EC50 that approximates it; ≥ and ≤ were set here for values at or beyond the usual limits of such assays; conditions: source organism: Dengue virus 2 Jamaica/1409/1983
HLA-B*27:05 = assay: IEDB peptide-MHC binding, purified MHC/direct/fluorescence; filed as Kd, often an IC50 or EC50 that approximates it; ≥ and ≤ were set here for values at or beyond the usual limits of such assays; conditions: source organism: Mycobacterium tuberculosis
HLA-A*11:01 = assay: IEDB peptide-MHC binding, purified MHC/competitive/radioactivity; filed as Kd, often an IC50 or EC50 that approximates it; ≥ and ≤ were set here for values at or beyond the usual limits of such assays; conditions: source organism: Dengue virus 4 Philippines/H241/1956
HLA-A*03:01 [1] = assay: as above; conditions: source organism: Dengue virus 4 Philippines/H241/1956
HLA-A*30:01 = assay: as above
HLA-A*02:01 [2] = assay: IEDB peptide-MHC binding, purified MHC/competitive/fluorescence; ≥ and ≤ were set here for values at or beyond the usual limits of such assays
HLA-A*02:01 [3] = assay: IEDB peptide-MHC binding, purified MHC/direct/fluorescence; filed as Kd, often an IC50 or EC50 that approximates it; ≥ and ≤ were set here for values at or beyond the usual limits of such assays
HLA-A*01:01 [4] = assay: IEDB peptide-MHC binding, purified MHC/competitive/radioactivity; filed as Kd, often an IC50 or EC50 that approximates it; ≥ and ≤ were set here for values at or beyond the usual limits of such assays
HLA-B*44:02 = assay: as above
HLA-B*44:03 = assay: as above
HLA-A*69:01 = assay: IEDB peptide-MHC binding, purified MHC/direct/fluorescence; filed as Kd, often an IC50 or EC50 that approximates it; ≥ and ≤ were set here for values at or beyond the usual limits of such assays
HLA-A*01:01 [5] = assay: as above
HLA-A*03:01 [6] = assay: as above; conditions: source organism: SARS-CoV1
HLA-B*15:01 = assay: as above
HLA-A*31:01 = assay: as above; conditions: source organism: SARS-CoV1
HLA-A*26:01 = assay: IEDB peptide-MHC binding, purified MHC/competitive/radioactivity; filed as Kd, often an IC50 or EC50 that approximates it; ≥ and ≤ were set here for values at or beyond the usual limits of such assays
HLA-B*40:01 = assay: IEDB peptide-MHC binding, purified MHC/direct/fluorescence; filed as Kd, often an IC50 or EC50 that approximates it; ≥ and ≤ were set here for values at or beyond the usual limits of such assays; conditions: source organism: Rickettsia prowazekii
HLA-B*58:01 = assay: as above; conditions: source organism: Rickettsia prowazekii
HLA-B*07:02 = assay: as above
HLA-A*02:01 [7] = assay: IEDB peptide-MHC binding, purified MHC/competitive/fluorescence; filed as Kd, often an IC50 or EC50 that approximates it; ≥ and ≤ were set here for values at or beyond the usual limits of such assays
[8] = source organism: Dengue virus 4 Philippines/H241/1956
[9] = source organism: Sudan ebolavirus
[10] = source organism: Dengue virus 2 Jamaica/1409/1983
[11] = source organism: Oligoflexia bacterium
[12] = source organism: Vaccinia virus WR
[13] = source organism: Dengue virus 1 Brazil/97-11/1997
[14] = source organism: Cryptosporidium parvum
[15] = source organism: Cryptosporidium hominis
[16] = source organism: Zaire ebolavirus
[17] = source organism: Orthohantavirus hantanense
[18] = source organism: Dengue virus 3 Sri Lanka/1266/2000
[19] = source organism: Dengue virus 1 Singapore/S275/1990
[20] = source organism: Vaccinia virus

Sequence: WYAQIQPHWI
Kd (HLA-A*24:02): 49.3 nM

Sequence: FRWDYIPPT
Kd (HLA-B*27:05): 332 nM

Sequence: RTEAKSALK
Kd (HLA-A*11:01): 177 nM | Kd (HLA-A*03:01 [1]): 87.6 nM | Kd (HLA-A*30:01; [8]): 476 nM

Sequence: LVPKNSPGM
IC50 (HLA-A*02:01 [2]; [9]): 17700 nM

Sequence: EMFGGTPAV
Kd (HLA-A*02:01 [3]; source organism: Mycobacterium tuberculosis): 2.1 nM

Sequence: LTASLVMLL
Kd (HLA-A*01:01 [4]; source organism: Dengue virus 4 Dominica/814669/1981): 1900 nM

Sequence: SRNSTHEMYW
Kd (HLA-B*44:02; [10]): 6360 nM | Kd (HLA-B*44:03; [10]): 1370 nM

Kd (HLA-A*69:01; [11]): 460 nM | Kd (HLA-A*02:01 [3]; [11]): 18000 nM
Sequence: EYSGGLHGV

Sequence: NVRYVFLYK
Kd (HLA-A*30:01; [12]): 9.89 nM

Sequence: ASLIPDATY
Kd (HLA-A*01:01 [5]; source organism: Mammarenavirus lassaense): 17100 nM

Sequence: LTDGPERVIL
Kd (HLA-A*01:01 [4]; source organism: Dengue virus 3 Martinique/1243/1999): 11800 nM

Sequence: KMSEYKGPV
Kd (HLA-A*02:01 [3]; source organism: SARS-CoV1): 1520 nM | Kd (HLA-A*03:01 [6]): 10600 nM | Kd (HLA-B*15:01; source organism: SARS-CoV1): 6670 nM | Kd (HLA-A*31:01): 2090 nM

Kd (HLA-A*02:01 [3]; source organism: Homo sapiens): 2430 nM
Sequence: PMVHSTFLI

Sequence: ELITEQMAPH
Kd (HLA-A*26:01; [8]): 6060 nM

Sequence: KNRNSKRSV
Kd (HLA-A*30:01; [12]): 32.7 nM

Sequence: HVKAFYKFI
Kd (HLA-A*30:01; [12]): 0.346 nM

Sequence: TVIALFLAH
Kd (HLA-A*26:01; [13]): 12200 nM

Sequence: GQFGSGWTW
Kd (HLA-B*40:01): 2870 nM | Kd (HLA-B*58:01): 168 nM | Kd (HLA-B*15:01; source organism: Rickettsia prowazekii): 138 nM

Sequence: LDPIPYDPKF
Kd (HLA-A*24:02): 2420 nM

Sequence: RLSNGMPTV
Kd (HLA-A*30:01; [12]): 9270 nM

Sequence: KLIQIEKVL
Kd (HLA-A*69:01; [14]): ≥ 20000 nM | Kd (HLA-A*02:01 [3]; [14]): 3250 nM

Sequence: GTIGAVSLDF
Kd (HLA-A*26:01; [10]): 454 nM

Sequence: MTSRMLLNRF
Kd (HLA-A*01:01 [4]; [13]): 12300 nM | Kd (HLA-A*26:01; [13]): 2180 nM

Sequence: VEGLSGATW
Kd (HLA-B*44:02; [13]): 30 nM | Kd (HLA-B*44:03; [13]): 89.1 nM

Sequence: FQWSDDPFI
Kd (HLA-A*69:01; [15]): ≥ 20000 nM | Kd (HLA-A*02:01 [3]; [15]): 7.3 nM

Sequence: ETLGEKWKSR
Kd (HLA-A*26:01; [10]): 14300 nM

Sequence: GGSLVRCPLS
Kd (HLA-A*30:01; [8]): 2430 nM

Kd (HLA-A*01:01 [5]; source organism: Homo sapiens): 16.3 nM | Kd (HLA-A*69:01; source organism: Homo sapiens): 2890 nM
Sequence: ETEQPTLDY

Sequence: GVATDVPSA
IC50 (HLA-A*02:01 [2]; [16]): 1460 nM

Sequence: VVRLLTKPWD
Kd (HLA-A*30:01; [10]): 3780 nM

Sequence: GLQADAPHL
Kd (HLA-A*69:01; [17]): ≥ 20000 nM | Kd (HLA-A*02:01 [3]; [17]): 104 nM

Sequence: RTHFSQPSG
Kd (HLA-A*30:01; [12]): 14.6 nM

Sequence: LYAVATTFV
Kd (HLA-A*24:02): 66.4 nM

Sequence: ALTAGAGAY
Kd (HLA-B*15:01; source organism: Mycobacterium tuberculosis str. Haarlem): 450 nM

Sequence: DPNPQEVVL
Kd (HLA-B*07:02; source organism: Human immunodeficiency virus 1): ≥ 30700 nM

Sequence: GAAGARGAL
Kd (HLA-B*07:02; source organism: Hepacivirus hominis): 12.8 nM

Sequence: SAVNMTSRM
Kd (HLA-A*26:01; [13]): 1220 nM

Sequence: SEMIIPKNF
Kd (HLA-B*44:02; [10]): 10.7 nM | Kd (HLA-B*44:03; [10]): 12.9 nM

Sequence: GIFPYSIPAT
Kd (HLA-A*30:01; [18]): ≥ 70400 nM

Sequence: DIRTLLPILL
Kd (HLA-A*02:01 [7]; source organism: Variola virus): 737 nM

Sequence: SSLPPLESD
IC50 (HLA-A*02:01 [2]; [16]): ≥ 170000 nM

Sequence: LLWFNYLFG
IC50 (HLA-A*02:01 [2]; source organism: Variola virus): ≥ 327000 nM

Sequence: STPQGLVKRF
Kd (HLA-A*26:01; [8]): 453 nM

Sequence: EEFWKLVDR
Kd (HLA-B*44:03; [18]): 3110 nM

Sequence: SMVNGVVKL
Kd (HLA-A*69:01; [19]): ≥ 20000 nM

Sequence: SLAALFYSL
Kd (HLA-A*02:01 [7]; source organism: Bacillus anthracis str. A0488): 1.8 nM

Sequence: NEGIMAVGI
Kd (HLA-B*44:02; [19]): 48 nM | Kd (HLA-B*44:03; [19]): 160 nM

Sequence: LILAKPKET
IC50 (HLA-A*02:01 [2]; [9]): 10800 nM

Sequence: LRFANPLSN
IC50 (HLA-A*02:01 [2]; [20]): ≥ 164000 nM

Sequence: MDYHKILTA
IC50 (HLA-A*02:01 [2]; [16]): ≥ 114000 nM

Sequence: SLTKLFSYG
IC50 (HLA-A*02:01 [2]; source organism: Variola virus): 8920 nM

Sequence: EIVNLLDNKV
Kd (HLA-A*02:01 [7]; source organism: Vaccinia virus Copenhagen): ≥ 20000 nM

Sequence: IESSKNQTW
Kd (HLA-B*44:02; [8]): 135 nM | Kd (HLA-B*44:03; [8]): 158 nM

Sequence: KLIIHNPEL
Kd (HLA-A*02:01 [7]; [20]): 2 nM
